In PMC11334519:

Experiments:
[1] = target: 3×FLAG-ORF66; experiment: pull-down
[2] = target: 6×Myc-tagged ORF24 BD [1–400 aa]; experiment: pull-down
[3] = 293T cells cotransfected, lysates pulled down with S-protein-agarose capturing 2×S-ORF34, parent: 1.00

| Substance | ratio to parent [1, 3] | ratio to parent ([1]; parent: 1.000) | ratio to parent [2, 3] | ratio to parent ([2]; parent: 1.000) |
| --- | --- | --- | --- | --- |
| 2×S-tagged KSHV ORF34 WT C170A | 0.05 | 0.057 | 0.32 | 0.325 |
| 2×S-tagged KSHV ORF34 WT C175A | 0.04 | 0.039 | 0.34 | 0.345 |
| 2×S-tagged KSHV ORF34 WT C256A | – | – | 0.11 | 0.109 |
| 2×S-tagged KSHV ORF34 WT C259A | – | – | 0.03 | 0.027 |
| 2×S-tagged KSHV ORF34 WT D154A | 0.28 | 0.282 | 0.51 | 0.512 |
| 2×S-tagged KSHV ORF34 WT E41A; T42A | 1.03 | 1.03 | 0.88 | 0.877 |
| 2×S-tagged KSHV ORF34 WT F47A | 1.09 | 1.09 | 0.86 | 0.859 |
| 2×S-tagged KSHV ORF34 WT G165A | 0.02 | 0.022 | 0.68 | 0.68 |
| 2×S-tagged KSHV ORF34 WT G182A | 0.36 | 0.359 | 1.28 | 1.29 |
| 2×S-tagged KSHV ORF34 WT L188A; L189A | – | – | 0.5 | 0.503 |
| 2×S-tagged KSHV ORF34 WT Q264A; N265A | – | – | 0.67 | 0.665 |
| 2×S-tagged KSHV ORF34 WT R234A | 0.77 | 0.775 | 0.74 | 0.74 |
| 2×S-tagged KSHV ORF34 WT S168A | 0.97 | 0.969 | 0.94 | 0.94 |
| 2×S-tagged KSHV ORF34 WT V50A | 1.11 | 1.11 | 0.86 | 0.861 |
| 2×S-tagged KSHV ORF34 WT W160A | 0.29 | 0.289 | 0.47 | 0.473 |
| 2×S-tagged KSHV ORF34 WT Y194A | 0.003 | 0.003 | 0.64 | 0.645 |
| 2×S-tagged KSHV ORF34 WT Y215A | 0.16 | 0.167 | 1.02 | 1.02 |
| 2×S-tagged KSHV ORF34 WT Y310A | 0.17 | 0.173 | 0.96 | 0.956 |
